The emibetuzumab library of Makowski et al. (2022)

B1: VH:VL chains; a variant is named by its letters at X, in order (parent)
chain 1: QVQLVQSGAEVKKPGASVKVSCKASGYTFTDYXMHWVRQAPGQGLEWMGXVNPNXXXTTYNQKFEGRVTMTTDTSTSTAYMELRSLRSDDTAVYYCARXNXLDXWGQGTTVTVSS
chain 2: DIQMTQSPSSLSASVGDRVTITCSVSSSVSSIYLHWYQQKPGKAPKLLIYSTSNLASGVPSRFSGSGSGTDFTLTISSLQPEDFATYYCQVYSGYPLTFGGGTKVEIK

Variants of: B1
Assay: yeast display scFab, FACS + sequencing
Procedure, shortened: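 The non-specific binding call was based on sorted and sequenced yeast displaying a heavy-chain CDR mutant scFab library. Labelling used anti-Myc with biotinylated ovalbumin (260 μg/mL in PBSB, 3 h, room temperature) or soluble membrane proteins (130 μg/mL, 20 min on ice), and FACS collected the top 25% and bottom 10% of binders in two replicates. Positive meant present in ≥3 of 4 pooled positive samples and in no negatives, and negative meant the converse.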

Variant | non-specific binding call
DREGDDAV | no binding
FREGASWD | binds
YRATDFVV | binds
VREEGDGA | no binding
VREGAAAV | no binding
YREGDASD | no binding
YRARSAAV | binds
YRARSAAD | binds
DREEGSWV | no binding
YREGGSLD | binds
SREAADGV | no binding
YRARSASV | binds
YRARSASA | binds
VREGSSAA | binds
ARARGSWV | binds
YREKAAWA | binds
VRATGYWA | binds
YRARSDVF | no binding
YRARGVGA | binds
YRARGVGV | binds
YREGGFAA | binds
YRARGSVF | binds
YRARGSVS | binds
FREKGDLA | no binding
YRARSFGD | binds

Variant | non-specific binding call
YRARSFGS | binds
SREGGFAA | binds
DREEGDGV | no binding
DREEGDGS | no binding
DREEGDVV | no binding
SREAADAV | no binding
YREGGFVA | binds
YREKGSAA | binds
YREKDSAD | no binding
YRARSSGA | binds
YRARSSGV | binds
YRARGYVY | binds
YRARSSAA | binds
YRARSSAD | binds
DREGDAVA | no binding
YREKGAAA | binds
DREEGDAV | no binding
DREEGAGV | no binding
DREEGAGS | no binding
DREEGAGA | no binding
FRATSAVD | binds
YREGGSGV | binds
FREGGALD | binds
YRARSAGF chain 1 G108D | binds
YRARSAVA | binds

Variant | non-specific binding call
YRARSAVD | binds
YRARSAVY | binds
YRARSAVV | binds
SREGGVVV | binds
YREEGDVF | no binding
YREGDAAD | no binding
VRARGVVA | binds
SRATAYSD | binds
SREAASGV | no binding
YRARGYGV | binds
VREGDYLS | binds
YRARGVVV | binds
FREGGAVS | binds
DREEGVGV | no binding
YREGGDGA | no binding
VREGDDAV | no binding
YREGDFVD | binds
VRATGSVY | binds
AREGDAGD | no binding
DREEGDWA | no binding
DREEGDWV | no binding
YRARSAGA | binds
YRARSAGF | binds
YRARSAGV | binds
YRARSAGY | binds

Variant | non-specific binding call
FREGSAVA | binds
YRARSALD | binds
YREGGAGV | binds
VREAADSF | no binding
DREGDYLY | no binding
FREEGFSV | no binding
FREGGSGD | binds
FREGSASV | binds
YRARSSSD | binds
YREETSGA | binds
DREEGAVA | no binding
DREEGAVV | no binding
DREEGAVY | no binding
FRARGSWV | binds
AREEGFSV | no binding
DREEGSGD | no binding
SREAASLA | no binding
AREGDDVA | no binding
YREGGSVD | no binding
DRARTFVA | binds
YREKGAGD | binds
YRARSSWS | binds
YRARSSWD | binds
DREEGFSV | no binding
SREAADWV | no binding

Variant | non-specific binding call
SREAADWA | no binding
SREEGFSV | no binding
YRARSSLY | binds
YRARSSLA | binds
YRARSAWA | binds
YRARSAWS | binds
YRARSAWV | binds
YRARSSVA | binds
YRARSSVV | binds
AREKGSAA | binds
YRARGSWD | binds
YRARGSWS | binds
FRARSAAV | binds
FRARSAAA | binds
DREEGSSA | no binding
DREEGSSY | no binding
DREGGVSD | binds
YREEGDGV | no binding
FRARSSGF | binds
FREKDSAD | no binding
SREAAAVY | no binding
